Measurements reported in patent US20220112295A1 (Novo Nordisk, published 2022).
Where a chain is given by its changes, count along the chain named.

B1: Antibody A1 (antibody, V domains shown)
VH: QVQLQESGPGLVKPSETLSLTCTVSGGSISSYIWSWIRQPAGKGLEWIGRIYASGNTNYNPSLKSRVTISVDTSKNQFSLKLSSMTAADTAVYYCARDYRVAGTYYYYYGLDVWGQGTTVTVSS
VL: QSALTQPASVSGSPGQSITISCTGTSSDVGVYDYVSWYQQHPGKAPKLMIYEVSNRPSGVSNRFSGSKSGNTASLTISGLQTEDEADYYCSSYTSRSTWVFGGGTKLTVL
notes: also called mAb A1; Antibody A1 IgG2
B2: Antibody A1 IgG1 (antibody, V domains shown)
VH: B1 VH
VL: B1 VL

Tests used:
[1] = molecular target: T1, recombinant human CD30L isoleucine zipper (huCD30L LZ) (human, UniProt P32971 63-234); assay: cell-based or functional assay
T1 sequence: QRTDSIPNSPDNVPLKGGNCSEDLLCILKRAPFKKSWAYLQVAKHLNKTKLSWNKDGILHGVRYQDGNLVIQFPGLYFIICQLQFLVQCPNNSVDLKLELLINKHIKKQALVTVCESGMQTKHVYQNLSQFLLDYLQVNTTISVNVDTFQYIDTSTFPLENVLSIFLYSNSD

[2] = molecular target: T2, FLAG-hCD30L-EC (N153Q) treated with PNGaseF (human); assay: HX-MS, 6 uM hCD30L with 6.6 uM mAb
T2 construct: also called FLAG-hCD30L-EC + PNGaseF
T2 chain: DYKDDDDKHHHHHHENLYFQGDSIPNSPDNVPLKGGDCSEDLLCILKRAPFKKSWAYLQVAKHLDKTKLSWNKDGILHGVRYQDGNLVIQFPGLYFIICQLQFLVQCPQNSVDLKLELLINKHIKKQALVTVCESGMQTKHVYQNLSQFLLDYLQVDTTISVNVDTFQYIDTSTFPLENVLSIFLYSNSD

[3] = molecular target: T1, recombinant human CD30L isoleucine …; assay: blocking of human CD30L LZ binding to K299 cells (CD30)
[4] = molecular target: T3, native human CD30L expressed on Ramos cells (human, UniProt P32971 1-234); assay: cell-based or functional assay
T3 sequence: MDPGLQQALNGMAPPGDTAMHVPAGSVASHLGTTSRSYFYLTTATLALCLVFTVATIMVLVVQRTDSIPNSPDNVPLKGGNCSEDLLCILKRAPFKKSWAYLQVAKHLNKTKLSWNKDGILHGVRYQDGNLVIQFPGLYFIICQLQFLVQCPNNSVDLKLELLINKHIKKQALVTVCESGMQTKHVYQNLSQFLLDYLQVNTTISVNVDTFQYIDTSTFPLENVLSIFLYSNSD

cyno CD30L LZ = molecular target: T4, cyno CD30L LZ (cynomolgus monkey, UniProt A0A7N9CVX7 63-234); assay: cell-based or functional assay
T4 sequence: T1 sequence with V13I, K16R, I142V, I165V

Row | Binder | IC50, inhibition of IL-8 release (K299 single cell assay with huCD30L LZ) [1] | binding result [2] | IC50 [3] | IC50, inhibition of IL-8 release (K299/Ramos dual cell assay) [4] | IC50, inhibition of IL-8 release (K299 single cell assay with cyno CD30L LZ) (cyno CD30L LZ)
1 | B1 | 2.7 nM | binds | 1.4 nM | 0.033 nM | 2.4 nM
2 | B2 | – | – | – | 0.032 nM | 1.5 nM
